Test results taken from patent US20190077860A1 (EISAI R AND D MANAGEMENT, published 2019).
Blank lines part the entries; values can stand above or below the binder they belong to.

Key:
Test in all cases: ELISA
[1] = target: T1, human EphA4 extracellular region-SEAP-His protein (human, UniProt P54764 20-547)
T1 construct: also called hEphA4-SEAP-His

SEAP-His = SEAP-His (UniProt P05187 23-511)
[2] = target: T2, human EphA1 extracellular region-SEAP-His protein (human, UniProt P21709 26-547)
T2 construct: extracellular domain; also called hEphA1-SEAP-His
T2 sequence (looked up): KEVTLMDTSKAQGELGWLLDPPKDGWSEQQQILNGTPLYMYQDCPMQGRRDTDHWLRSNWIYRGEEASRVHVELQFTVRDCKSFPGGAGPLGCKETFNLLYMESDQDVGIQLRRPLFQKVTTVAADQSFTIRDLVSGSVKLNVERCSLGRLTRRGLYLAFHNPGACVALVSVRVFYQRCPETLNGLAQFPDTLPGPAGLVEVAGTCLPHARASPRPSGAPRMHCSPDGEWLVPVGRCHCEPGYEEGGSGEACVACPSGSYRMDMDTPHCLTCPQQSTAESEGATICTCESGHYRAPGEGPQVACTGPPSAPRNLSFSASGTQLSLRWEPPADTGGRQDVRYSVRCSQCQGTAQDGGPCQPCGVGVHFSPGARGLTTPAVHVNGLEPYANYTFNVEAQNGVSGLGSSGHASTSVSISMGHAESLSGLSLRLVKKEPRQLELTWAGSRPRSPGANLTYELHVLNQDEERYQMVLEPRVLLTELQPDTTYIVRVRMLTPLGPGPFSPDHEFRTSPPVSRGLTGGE

[3] = target: T3, human EphA6 extracellular region-SEAP-His protein (human, UniProt Q9UF33 23-550)
T3 construct: extracellular domain; also called hEphA6-SEAP-His
T3 sequence (looked up): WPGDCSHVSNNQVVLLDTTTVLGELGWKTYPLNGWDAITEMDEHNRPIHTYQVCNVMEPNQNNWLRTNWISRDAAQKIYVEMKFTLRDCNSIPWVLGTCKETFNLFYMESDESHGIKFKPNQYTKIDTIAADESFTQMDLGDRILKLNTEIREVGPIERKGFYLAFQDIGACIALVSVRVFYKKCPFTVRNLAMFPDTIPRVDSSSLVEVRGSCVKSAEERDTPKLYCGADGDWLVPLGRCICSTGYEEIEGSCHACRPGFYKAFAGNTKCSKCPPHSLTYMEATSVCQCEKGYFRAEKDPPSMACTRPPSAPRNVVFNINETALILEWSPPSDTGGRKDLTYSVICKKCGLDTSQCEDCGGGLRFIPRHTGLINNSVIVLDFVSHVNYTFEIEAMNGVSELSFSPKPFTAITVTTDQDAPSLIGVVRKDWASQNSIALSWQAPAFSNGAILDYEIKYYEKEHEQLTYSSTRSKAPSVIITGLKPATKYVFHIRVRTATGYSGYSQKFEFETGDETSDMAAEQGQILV

[4] = target: T4, human EphB3 extracellular region-SEAP-His protein (human, UniProt P54753 34-559)
T4 construct: extracellular domain; also called hEphB3-SEAP-His
T4 sequence (looked up): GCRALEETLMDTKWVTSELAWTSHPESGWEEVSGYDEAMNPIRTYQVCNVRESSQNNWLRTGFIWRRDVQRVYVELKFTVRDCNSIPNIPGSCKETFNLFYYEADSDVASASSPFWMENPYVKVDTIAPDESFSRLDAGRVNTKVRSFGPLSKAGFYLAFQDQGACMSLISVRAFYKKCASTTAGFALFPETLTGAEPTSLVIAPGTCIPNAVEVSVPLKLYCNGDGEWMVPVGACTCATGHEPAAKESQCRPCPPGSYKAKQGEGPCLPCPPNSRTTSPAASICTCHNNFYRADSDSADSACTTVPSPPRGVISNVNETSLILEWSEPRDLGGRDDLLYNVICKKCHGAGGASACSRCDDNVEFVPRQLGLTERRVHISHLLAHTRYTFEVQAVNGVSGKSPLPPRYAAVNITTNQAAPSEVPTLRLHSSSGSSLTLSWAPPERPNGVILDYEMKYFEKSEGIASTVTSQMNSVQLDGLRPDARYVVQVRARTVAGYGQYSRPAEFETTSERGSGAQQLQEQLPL

[5] = target: T5, human EphB2 extracellular region-SEAP-His protein (human, UniProt P29323 19-543)
T5 construct: extracellular domain; also called hEphB2-SEAP-His
T5 sequence (looked up): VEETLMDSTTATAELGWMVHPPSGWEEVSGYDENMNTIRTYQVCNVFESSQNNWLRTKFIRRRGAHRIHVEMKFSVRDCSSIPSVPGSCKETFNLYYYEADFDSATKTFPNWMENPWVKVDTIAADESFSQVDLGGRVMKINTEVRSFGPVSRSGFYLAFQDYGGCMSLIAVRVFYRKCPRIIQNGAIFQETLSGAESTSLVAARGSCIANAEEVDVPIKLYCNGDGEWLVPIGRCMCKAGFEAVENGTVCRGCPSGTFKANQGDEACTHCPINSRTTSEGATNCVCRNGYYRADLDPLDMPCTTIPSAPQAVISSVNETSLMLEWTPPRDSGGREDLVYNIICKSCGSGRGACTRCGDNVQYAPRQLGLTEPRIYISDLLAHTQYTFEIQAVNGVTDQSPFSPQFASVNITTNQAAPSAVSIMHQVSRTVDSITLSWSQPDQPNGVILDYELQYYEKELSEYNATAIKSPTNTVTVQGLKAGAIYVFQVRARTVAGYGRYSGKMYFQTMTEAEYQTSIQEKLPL

SEAP-His, sequence (P05187 23-511): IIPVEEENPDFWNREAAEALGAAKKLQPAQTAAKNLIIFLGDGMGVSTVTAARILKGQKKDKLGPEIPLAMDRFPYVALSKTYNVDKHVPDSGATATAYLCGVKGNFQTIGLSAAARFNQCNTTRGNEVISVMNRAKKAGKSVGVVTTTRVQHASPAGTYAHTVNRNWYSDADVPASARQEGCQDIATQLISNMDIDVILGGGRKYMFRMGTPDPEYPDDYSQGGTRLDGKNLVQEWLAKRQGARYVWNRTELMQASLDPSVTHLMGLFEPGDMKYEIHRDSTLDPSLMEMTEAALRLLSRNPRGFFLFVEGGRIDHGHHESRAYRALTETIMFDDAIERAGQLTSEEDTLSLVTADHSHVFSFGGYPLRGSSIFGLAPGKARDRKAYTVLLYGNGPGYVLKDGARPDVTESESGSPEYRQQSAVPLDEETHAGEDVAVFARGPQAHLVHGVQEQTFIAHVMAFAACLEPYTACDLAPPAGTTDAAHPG
T1 sequence (P54764 20-547): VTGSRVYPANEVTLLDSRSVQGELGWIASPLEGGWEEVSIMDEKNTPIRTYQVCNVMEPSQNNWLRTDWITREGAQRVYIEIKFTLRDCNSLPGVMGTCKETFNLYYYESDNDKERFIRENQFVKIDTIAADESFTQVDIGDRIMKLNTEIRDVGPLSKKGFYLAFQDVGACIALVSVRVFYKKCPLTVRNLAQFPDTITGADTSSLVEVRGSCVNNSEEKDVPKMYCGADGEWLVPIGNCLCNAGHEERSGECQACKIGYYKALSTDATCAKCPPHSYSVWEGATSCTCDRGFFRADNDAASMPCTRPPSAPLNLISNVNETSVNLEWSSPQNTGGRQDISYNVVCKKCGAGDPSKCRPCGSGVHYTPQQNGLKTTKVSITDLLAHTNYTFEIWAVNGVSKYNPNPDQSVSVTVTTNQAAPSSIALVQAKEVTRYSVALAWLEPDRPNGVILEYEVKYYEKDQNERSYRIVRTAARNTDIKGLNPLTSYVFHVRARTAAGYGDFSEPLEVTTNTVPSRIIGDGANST

B1: humanized antibody No. 155 (antibody, human IgG2)
heavy: QIQLVQSGSELKKPGASVKVSCKASGYTFTDYSMHWVRQAPGQGLKWMGWINTETGEPTYADDFKGRFVFSLDTSVSTAYLQISSLKAEDTAVYYCARIPLYYYGSRYWYFDVWGQGTTVTVSSASTKGPSVFPLAPSSRSTSESTAALGCLVKDYFPEPVTVSWNSGALTSGVHTFPAVLQSSGLYSLSSVVTVPSSNFGTQTYTCNVDHKPSNTKVDKTVERKSCVECPPCPAPPAAAPSVFLFPPKPKDTLMISRTPEVTCVVVDVSHEDPEVQFNWYVDGVEVHNAKTKPREEQFNSTFRVVSVLTVVHQDWLNGKEYKCKVSNKGLPAPIEKTISKTKGQPREPQVYTLPPSREEMTKNQVSLTCLVKGFYPSDIAVEWESNGQPENNYKTTPPMLDSDGSFFLYSKLTVDKSRWQQGNVFSCSVMHEALHNHYTQKSLSLSPG
light: DIQMTQSPSSLSASVGDRVTITCRASENIYRNLAWYQQKPGKAPKLLLYAATNLADGVPSRFSGSGSGTDYTLTISSLQSEDFATYYCQHFWGTPWTFGQGTKVEIKRTVAAPSVFIFPPSDEQLKSGTASVVCLLNNFYPREAKVQWKVDNALQSGNSQESVTEQDSKDSTYSLSSTLTLSKADYEKHKVYACEVTHQGLSSPVTKSFNRGEC
notes: human Ig kappa; also called L1-5/HK4
A450 as % of hEphA4-SEAP-His [1]: 100% | A450 as % of hEphA4-SEAP-His (SEAP-His): 5.8% | A450 as % of hEphA4-SEAP-His [2]: 5.5% | A450 as % of hEphA4-SEAP-His [3]: 7.2% | A450 as % of hEphA4-SEAP-His [4]: 5.5% | A450 as % of hEphA4-SEAP-His [5]: 5.5%

B3: humanized antibody No. 156 (antibody, human IgG2)
heavy: QIQLVQSGSELKKPGASVKVSCKASGYTFTDYSMHWVRQAPGQGLKWMGWINTETGEPTYAQGFTGRFVFSLDTSVSTAYLQISSLKAEDTAVYYCARIPLYYYGSRYWYFDVWGQGTTVTVSSASTKGPSVFPLAPSSRSTSESTAALGCLVKDYFPEPVTVSWNSGALTSGVHTFPAVLQSSGLYSLSSVVTVPSSNFGTQTYTCNVDHKPSNTKVDKTVERKSCVECPPCPAPPAAAPSVFLFPPKPKDTLMISRTPEVTCVVVDVSHEDPEVQFNWYVDGVEVHNAKTKPREEQFNSTFRVVSVLTVVHQDWLNGKEYKCKVSNKGLPAPIEKTISKTKGQPREPQVYTLPPSREEMTKNQVSLTCLVKGFYPSDIAVEWESNGQPENNYKTTPPMLDSDGSFFLYSKLTVDKSRWQQGNVFSCSVMHEALHNHYTQKSLSLSPG
light: DIQMTQSPSSLSASVGDRVTITCRASENIYRNLAWYQQKPGKAPQLLLYAATNLADGVPSRFSGSGSGTDYTLTISSLQPEDFATYYCQHFWGTPWTFGQGTKVEIKRTVAAPSVFIFPPSDEQLKSGTASVVCLLNNFYPREAKVQWKVDNALQSGNSQESVTEQDSKDSTYSLSSTLTLSKADYEKHKVYACEVTHQGLSSPVTKSFNRGEC
notes: human Ig kappa; also called L1-6/HA4
A450 as % of hEphA4-SEAP-His [1]: 100% | A450 as % of hEphA4-SEAP-His (SEAP-His): 5.4% | A450 as % of hEphA4-SEAP-His [2]: 5.7% | A450 as % of hEphA4-SEAP-His [3]: 8.9% | A450 as % of hEphA4-SEAP-His [4]: 5.6% | A450 as % of hEphA4-SEAP-His [5]: 5.5%

The next lines start with the values.

A450 as % of hEphA4-SEAP-His [1]: 100% | A450 as % of hEphA4-SEAP-His (SEAP-His): 6.3% | A450 as % of hEphA4-SEAP-His [2]: 6.5% | A450 as % of hEphA4-SEAP-His [3]: 10% | A450 as % of hEphA4-SEAP-His [4]: 6.5% | A450 as % of hEphA4-SEAP-His [5]: 6.3%
B2: humanized antibody No. 158 (antibody, human IgG2)
heavy: QVQLVQSGSELKKPGASVKVSCKASGYTFTDYSMHWVRQAPGQGLKWMGWINTETGEPTYAQGFTGRFVFSLDTSVSTAYLQISSLKAEDTAVYYCARIPLYYYGSRYWYFDVWGQGTTVTVSSASTKGPSVFPLAPSSRSTSESTAALGCLVKDYFPEPVTVSWNSGALTSGVHTFPAVLQSSGLYSLSSVVTVPSSNFGTQTYTCNVDHKPSNTKVDKTVERKSCVECPPCPAPPAAAPSVFLFPPKPKDTLMISRTPEVTCVVVDVSHEDPEVQFNWYVDGVEVHNAKTKPREEQFNSTFRVVSVLTVVHQDWLNGKEYKCKVSNKGLPAPIEKTISKTKGQPREPQVYTLPPSREEMTKNQVSLTCLVKGFYPSDIAVEWESNGQPENNYKTTPPMLDSDGSFFLYSKLTVDKSRWQQGNVFSCSVMHEALHNHYTQKSLSLSPG
light: DIQMTQSPSSLSASVGDRVTITCRASENIYRNLAWYQQKPGKAPQLLLYAATNLADGVPSRFSGSGSGTDYTLTISSLQPEDFATYYCQHFWGTPWTFGQGTKVEIKRTVAAPSVFIFPPSDEQLKSGTASVVCLLNNFYPREAKVQWKVDNALQSGNSQESVTEQDSKDSTYSLSSTLTLSKADYEKHKVYACEVTHQGLSSPVTKSFNRGEC
notes: human Ig kappa; also called L1-6/HA2

A450 as % of hEphA4-SEAP-His [1]: 100% | A450 as % of hEphA4-SEAP-His (SEAP-His): 6.1% | A450 as % of hEphA4-SEAP-His [2]: 6.2% | A450 as % of hEphA4-SEAP-His [3]: 9% | A450 as % of hEphA4-SEAP-His [4]: 6.4% | A450 as % of hEphA4-SEAP-His [5]: 6.2%
B4: humanized antibody No. 157 (antibody, human IgG2)
heavy: QVQLVQSGSELKKPGASVKVSCKASGYTFTDYSMHWVRQAPGQGLEWMGWINTETGEPTYAQGFTGRFVFSLDTSVSTAYLQISSLKAEDTAVYYCARIPLYYYGSRYWYFDVWGQGTTVTVSSASTKGPSVFPLAPSSRSTSESTAALGCLVKDYFPEPVTVSWNSGALTSGVHTFPAVLQSSGLYSLSSVVTVPSSNFGTQTYTCNVDHKPSNTKVDKTVERKSCVECPPCPAPPAAAPSVFLFPPKPKDTLMISRTPEVTCVVVDVSHEDPEVQFNWYVDGVEVHNAKTKPREEQFNSTFRVVSVLTVVHQDWLNGKEYKCKVSNKGLPAPIEKTISKTKGQPREPQVYTLPPSREEMTKNQVSLTCLVKGFYPSDIAVEWESNGQPENNYKTTPPMLDSDGSFFLYSKLTVDKSRWQQGNVFSCSVMHEALHNHYTQKSLSLSPG
light: DIQMTQSPSSLSASVGDRVTITCRASENIYRNLAWYQQKPGKAPQLLLYAATNLADGVPSRFSGSGSGTDYTLTISSLQPEDFATYYCQHFWGTPWTFGQGTKVEIKRTVAAPSVFIFPPSDEQLKSGTASVVCLLNNFYPREAKVQWKVDNALQSGNSQESVTEQDSKDSTYSLSSTLTLSKADYEKHKVYACEVTHQGLSSPVTKSFNRGEC
notes: human Ig kappa; also called L1-6/HA1
